{
  "source": "paper PMC11079477",
  "about": "(iScience, 2024)",
  "proteins": {"B1": {"name": "PfP2-HA of P. falciparum 3D7 P2-HA glmS transgenic parasites (natural protein, Plasmodium falciparum 3D7, UniProt O00806 1-112, looked up)", "chain": "MAMKYVAAYLMCVLGGNENPSTKEVKNVLGAVNADVEDEVLNNFIDSLKGKSCHELITDGLKKLQNIGGGVAAAPAGAAAVETAEAKKEDKKEEKKEEEEEEEDDLGFSLFG"}, "B2": {"name": "LAFS-induced denaturation-resistant rec. PfP2 tetramer (natural protein, Plasmodium falciparum 3D7, UniProt O00806 1-112, looked up)", "chain": "B1 chain", "modifications": "11th methionine (Met11) oxidized; Met11 S-O-S Met11 linkages between chains as the paper proposes"}, "B3": {"name": "PfP2 of wild type P. falciparum 3D7 parasites (natural protein, UniProt O00806 1-112, looked up)", "chain": "B1 chain", "modifications": "11th methionine (Met11) oxidized in the parasite membrane preparation (ESI MS/MS)"}, "B4": {"name": "PfP2C12A (Clone 1, C12A) (natural protein, Plasmodium falciparum 3D7, UniProt O00806 1-112, looked up)", "chain": "B1 chain with C12A"}, "B5": {"name": "6x His tag recombinant PfP2 (P. falciparum 60S stalk ribosomal protein P2) (natural protein, Plasmodium falciparum 3D7, UniProt O00806 1-112, looked up)", "chain": "B1 chain"}, "B6": {"name": "LAFS-induced alkylated rec. PfP2 tetramer (natural protein, Plasmodium falciparum 3D7, UniProt O00806 1-112, looked up)", "chain": "B1 chain", "modifications": "cysteines alkylated using iodoacetamide (IAA) after reduction with DTT"}},
  "key": {"[1]": {"target": "the molecule itself", "assay": "reducing SDS-PAGE and immunoblot"}, "4M urea SDS-PAGE": {"target": "the molecule itself", "assay": "4M urea SDS-PAGE"}, "[2]": {"target": "the molecule itself", "assay": "reducing SDS-PAGE and immunoblot of a membrane preparation"}, "[3]": {"target": "the molecule itself", "assay": "non-reducing SDS-PAGE and Western blot"}, "non-reducing SDS-PAGE": {"target": "the molecule itself", "assay": "non-reducing SDS-PAGE"}, "[4]": {"target": "the molecule itself"}},
  "note": "Residue numbers refer to the chain shown, from its start. Names and notes keep the numbering of the source. Read-outs that look alike come from different tables or passages of the source.",
  "data": [
    {"protein": "B1", "values": [
      {"measurement": "stoichiometry N", "setting": "[1]", "result": 4}
    ]},
    {"protein": "B2", "values": [
      {"measurement": "stoichiometry N", "setting": "4M urea SDS-PAGE", "result": 4}
    ]},
    {"protein": "B3", "values": [
      {"measurement": "stoichiometry N", "setting": "[1]", "result": 4},
      {"measurement": "stoichiometry N", "setting": "[2]", "result": 2}
    ]},
    {"protein": "B4", "values": [
      {"measurement": "stoichiometry N", "setting": "[3]", "result": 2}
    ]},
    {"protein": "B5", "values": [
      {"measurement": "stoichiometry N", "setting": "non-reducing SDS-PAGE", "result": 4}
    ]},
    {"protein": "B6", "values": [
      {"measurement": "stoichiometry N", "setting": "[4]", "result": 4}
    ]}
  ]
}
